Experimental data published in patent US20250263490A1 (VIB VZW, published 2025).
Each block holds one binder with its values, some of them ahead of it.

Experiments:
[1] = target: T1, recombinant human domain 1-3His6 of the cation-independent mannose-6-phosphate receptor (human, UniProt P11717 41-467); experiment: BLI exp 2, dissoc pH 6
T1 construct: Biotinylated (NHS-PEG4-biotin) for BLI; Glycosylated; also called hDom1-3His6; hCI-M6PRD1-D3
Protocol: (§1) For each of the 11 anti-CI-M6PR VHHs, a biolayer interferometry (BLI) experiment was performed in which the hDom₁₋₃His₆ was biotinylated and coupled to streptavidin biosensor tips. Afterwards, the tips were incubated with serially diluted VHHs during the association phase and dissociation was performed at pH 7.4. Similarly, dissociation was performed at pH 7.0, pH 6.0 and pH 5.0 as well after regeneration of the biosensor tips. […] The anti-CI-M6PR antibody (clone 2G11) and GBP were used as positive and negative controls, respectively.
(§2) Analysis of the binding kinetics was performed using an Octet Red96 (FortéBio) device with Streptavidin SA Biosensor tips (VWR, 733-2145). To this end, 1 mL of hCI-M6PR_D1-D3 (0.5 mg/mL in 50 mM MES, 150 mM NaCl, pH 6.5) was incubated at room temperature for 30 minutes with a two-fold molar excesses of EZ-Link™ NHS-PEG₄-Biotin (Thermo Fischer, A39259) and NaHCO₃ (100 mM, pH 8.3). Biotinylated hCIMPR_D1-D3 was purified using a Zeba spin desalting column (Thermo Fischer, 89890) and protein concentration was calculated by measuring the absorbance at 280 nm (extinction coefficient 50320 M¹ cm⁻¹). Two-fold biotin-labelled antigen was loaded on the tips (2.5 μg/mL) and subsequently dipped into a particular anti-CI-M6PR VHH-containing solution (ranging from 0-100 nM). Serial VHH dilutions were made in kinetics buffer (0.2 M Na₂HPO₄, 0.1 M Na⁺ citrate, 0.01% BSA, 0.002% Tween20, pH 7.4). After association (100 sec), dissociation was conducted (500 sec) for each anti-CI-M6PR VHH in the kinetics buffer, followed by biosensor regeneration in glycine (10 mM, pH 3) and neutralisation. The same cycle was repeated with dissociation performed in kinetics buffer of pH 7.0, 6.5, 6.0, 5.5, and 5.0.
(§3) A reference well and reference sensors were subtracted from ligand sensors afterwards and Savitsky-Golay filtering was applied on the data. Fitting of the data was performed using a 1:1 model, grouped per dissociation pH.

[2] = target: T1, recombinant human domain 1-3His6 of the …; experiment: BLI at pH 7.4, 2nd of 2 repeats
[3] = target: T1, recombinant human domain 1-3His6 of the …; experiment: ELISA on coated antigen, 2nd of 2 repeats
Protocol: (§4) FIGS. 4A-4B. Affinity of anti-CI-M6PR VHHs for recombinant human CI-M6PR Domain 1-3His₆ determined by ELISA. A & B. Measurements for each of the 11 anti-CI-M6PR VHHs in serial dilution binding to the coated human CI-M6PR Domain 1-3His₆ antigen. Detection was performed using an anti-VHH antibody coupled to HRP, and measured as the absorbance of the TMB substrate at 450 nm, correlating to the amount of bound VHH as plotted at the Y-axis. The Log₁₀ concentrations of the serially diluted VHHs were plotted at the X-axis. […] A & B represent replicates but using a different concentration of human CI-M6PR Domain 1-3His₆ (in (FIG. 4A): 0-0.75 μM and in (FIG. 4B): 0-1 μM).
(§5) We evaluated the affinity of the VHHs against the hDom₁₋₃His₆ using ELISA. Coated hDom₁₋₃His₆ was incubated with serially diluted VHH that was afterwards detected using an anti-VHH antibody, coupled to HRP.

[4] = target: T1, recombinant human domain 1-3His6 of the …; experiment: ELISA on coated antigen, 1st of 2 repeats
Protocol: as §4, §5

[5] = target: T1, recombinant human domain 1-3His6 of the …; experiment: BLI exp 1, dissoc pH 7
Protocol: as §1
(§6) Analysis of the binding kinetics was performed using an Octet Red96 (FortéBio) device with Streptavidin SA Biosensor tips (VWR 733-2145). Therefore, 1 mL of human domain₁₋₃His₆ (0.5 mg/mL in 50 mM MES, 150 mM NaCl, pH 6.5) was incubated at room temperature for 30 minutes with EZ-Link™ NHS-PEG4-Biotin (1 mg) (Thermo Fischer A39259) and NaHCO₃ (100 mM). Biotinylated human domain₁₋₃His₆ was purified using a Zeba spin desalting Column™ (7K MWCO, 2 mL, Thermo Fischer 89890) and 1 μg/mL was used for immobilization on the Streptavidin SA Biosensor tips. The loaded tips were dipped into a particular anti-CI-M6PR VHH solution, serially diluted in kinetics buffer (0.2M NaH₂PO₄, 0.1M Na⁺ citrate, 0.01% BSA, 0.002% Tween20, pH 7.4). This was followed by dissociation of the particular anti-CI-M6PR VHH in kinetics buffer of pH 7.4, followed by regeneration in Glycine (10 mM, pH 3) and neutralisation. Same cycle was repeated but the dissociation was performed at pH 7.0, 6.0, 5.0, 4.5 and 4.0. A reference well and reference sensors were subtracted from ligand sensors afterwards and Savitsky-Golay filtering was applied on the data. Fitting of the data was performed using a 1:1 model, grouped per pH of dissociation.

[6] = target: T1, recombinant human domain 1-3His6 of the …; experiment: BLI exp 1, dissoc pH 7.4
Protocol: as §1, §6

[7] = target: T1, recombinant human domain 1-3His6 of the …; experiment: BLI exp 2, dissoc pH 5.5
Protocol: as §1, §2, §3

[8] = target: T1, recombinant human domain 1-3His6 of the …; experiment: ELISA on coated human CI-M6PRD1-D3, non-linear fit of the curves of FIG 36A
Protocol: FIGS. 36A-C. […] (FIG. 36A) ELISA assay in which each construct was serially diluted and incubated on human CI-M6PR_D1-D3 and the detected absorbance (Abs) at 450 nm was set out in function of concentration. […] Graphs created in Graphpad Prism 9.0.0.

koff [1]: 0.028 s⁻¹
kon [1]: 40000 M⁻¹ s⁻¹
Kd [2]: 9.08 nM
koff [2]: 0.0118 s⁻¹
kon [2]: 1.3e+06 M⁻¹ s⁻¹
EC50 [3]: 1.19 nM
EC50 [4]: 0.0109 nM
Kd [5]: 8.08 nM
koff [5]: 0.00698 s⁻¹
kon [5]: 864000 M⁻¹ s⁻¹
Kd [6]: 10.8 nM
koff [6]: 0.00999 s⁻¹
kon [6]: 924000 M⁻¹ s⁻¹
koff [7]: 0.027 s⁻¹
kon [7]: 35000 M⁻¹ s⁻¹
EC50 [8]: 0.45 nM
B1: anti-CI-M6PR VHH7 (VHH)
VHH: QVQLQESGGGLVQPGGSLRLSCAASGIIFSDNRMDWYRQAPGKQREWVATLASYGWKTYADSVKGRFTISRDNTKNTVYLRMNSLKPEDTAVYYCKASSPVLNDIWGQGTQVTVSS
notes: His6-tagged (Pichia pastoris)

koff [1]: 0.00205 s⁻¹
kon [1]: 39100 M⁻¹ s⁻¹
Kd [2]: 46.5 nM
koff [2]: 0.00177 s⁻¹
kon [2]: 38100 M⁻¹ s⁻¹
EC50 [3]: 0.224 nM
EC50 [4]: 0.0657 nM
koff [5]: 0.00148 s⁻¹
kon [5]: 99300 M⁻¹ s⁻¹
Kd [6]: 46.3 nM
koff [6]: 0.00177 s⁻¹
kon [6]: 38100 M⁻¹ s⁻¹
B2: anti-CI-M6PR VHH10 (VHH)
VHH: QVQLQESGGGSVQAGGSLRLSCAPAGRTFSRIRMGWFRQAPGKEREFVAAISSGGLSYYADSMKGRFTISRDNAKNTVLLQMNSLEPDDTAVYYCAAVLNDYIDDYVARNPTLYDYWGQGTQVTVSS
notes: His6-tagged; made in Pichia pastoris

koff [1]: 0.00227 s⁻¹
kon [1]: 718000 M⁻¹ s⁻¹
Kd [2]: 4.74 nM
koff [2]: 0.00352 s⁻¹
kon [2]: 743000 M⁻¹ s⁻¹
EC50 [4]: 84.2 nM
Kd [5]: 2.65 nM
koff [5]: 0.00227 s⁻¹
kon [5]: 856000 M⁻¹ s⁻¹
Kd [6]: 3.35 nM
koff [6]: 0.00352 s⁻¹
kon [6]: 1.05e+06 M⁻¹ s⁻¹
B3: anti-CI-M6PR VHH6 (VHH)
VHH: QVQLQESGGGLVQAGGSLRLSCAVSGSISSIGGMGWFRQAPGKQREFVAVILNNSGMTSYADSVKGRFTISRGNSKNTMYLQMNSLKPEDTAVYYCNYSGYWGQGTQVTVSS
notes: His6-tagged; made in E. coli

koff [1]: 0.021 s⁻¹
kon [1]: 560000 M⁻¹ s⁻¹
Kd [2]: ~11.2 nM
koff [2]: 0.0099 s⁻¹
kon [2]: 1e+06 M⁻¹ s⁻¹
EC50 [3]: 19.4 nM
EC50 [4]: 1.78 nM
Kd [5]: 6.05 nM
koff [5]: ~0.00756 s⁻¹
kon [5]: 1.25e+06 M⁻¹ s⁻¹
Kd [6]: 7.44 nM
koff [6]: ~0.00606 s⁻¹
kon [6]: 814000 M⁻¹ s⁻¹
koff [7]: 0.04 s⁻¹
kon [7]: 47000 M⁻¹ s⁻¹
EC50 [8]: 19 nM
B4: anti-CI-M6PR VHH1 (VHH)
VHH: QVQLQESGGGLVQPGGSLRLSCVASGFTFDRYWMNWLRQIPGKEIEWVSTINTGGTGTYYDDSVKGRFSISRDDAKNTLYLTMNSLKTEDTAVYYCARGATYYRGNSAIRGQGTQVTVSS
notes: His6-tagged; made in Pichia pastoris, later also in E. coli WK6

koff [1]: 0.00126 s⁻¹
kon [1]: 572000 M⁻¹ s⁻¹
koff [2]: 0.00133 s⁻¹
EC50 [3]: 70.1 nM
Kd [5]: 2.2 nM
koff [5]: 0.00126 s⁻¹
kon [5]: 572000 M⁻¹ s⁻¹
Kd [6]: 2.33 nM
koff [6]: 0.00133 s⁻¹
kon [6]: 571000 M⁻¹ s⁻¹
B5: anti-CI-M6PR VHH4 (VHH)
VHH: QVQLQESGGGLVQAGGSLRLSCAASGRTFSNYVMGWFRQAPGKEREFVGSISQGGKMTYYPDSVKGRFTISRDNAKNTMYLQMDGLKPEDTAVYYCAVSRGYPMVRVSEVDYWGQGTQVTVSS
notes: as for B2

koff [1]: 0.000122 s⁻¹
kon [1]: 615000 M⁻¹ s⁻¹
Kd [2]: 0.282 nM
koff [2]: 0.000444 s⁻¹
kon [2]: 1.57e+06 M⁻¹ s⁻¹
EC50 [3]: 0.251 nM
EC50 [4]: 0.00642 nM
Kd [5]: 0.476 nM
koff [5]: 0.00051 s⁻¹
kon [5]: 1.07e+06 M⁻¹ s⁻¹
Kd [6]: 0.282 nM
koff [6]: 0.000444 s⁻¹
kon [6]: 1.57e+06 M⁻¹ s⁻¹
B6: anti-CI-M6PR VHH9 (VHH)
VHH: QVQLQESGGGLVQAGGSLRLSCAASGTILSIKTMGWYRQAPGKEREWVATITSSSIPMYADSVKGRFTISRDDAKNTVYLQMNSLKPEDTGVYYCNAPWTDYWGQGTQVTVSS
notes: as for B2

koff [1]: 0.00029 s⁻¹
kon [1]: 1.7e+06 M⁻¹ s⁻¹
Kd [2]: ~0.1 nM
koff [2]: 0.00018 s⁻¹
kon [2]: 1.8e+06 M⁻¹ s⁻¹
EC50 [3]: 0.0647 nM
EC50 [4]: 0.0816 nM
Kd [5]: 0.346 nM
koff [5]: 0.000412 s⁻¹
kon [5]: 1.19e+06 M⁻¹ s⁻¹
Kd [6]: 0.0903 nM
koff [6]: 0.000124 s⁻¹
kon [6]: 1.37e+06 M⁻¹ s⁻¹
EC50 [8]: 65 nM
B7: anti-CI-M6PR VHH5 (VHH)
VHH: QVQLQESGGGLVQAGGSLKLSCAAAGRTFSRLAMGWFRQAPGKEREFVAAISENGDSIHYSDSVKGRFAVSRDNAKNTVYLQMNSLKPEDTAIYYCAADRAAYYCSGSGCYPSRAPAAASYDYWGQGTQVTVSS
notes: as for B4

koff [1]: 0.000499 s⁻¹
kon [1]: 40600 M⁻¹ s⁻¹
Kd [2]: 7.1 nM
koff [2]: 0.000345 s⁻¹
kon [2]: 48600 M⁻¹ s⁻¹
EC50 [3]: 0.104 nM
EC50 [4]: 0.0379 nM
Kd [5]: 0.269 nM
koff [5]: 0.000604 s⁻¹
kon [5]: 2.24e+06 M⁻¹ s⁻¹
Kd [6]: ≤ 0.000117 nM
koff [6]: ≤ 1e-07 s⁻¹
kon [6]: 853000 M⁻¹ s⁻¹
B8: anti-CI-M6PR VHH3 (VHH)
VHH: QVQLQESGGGLVQPGGSLRLSCAAFGLNFKNFDMIWFRQAPGEERDIVAAISSSSSTIWYEDSVKGRFTISRDNAKNTVYLQMNSLKPEDTAVYYCAAALTSWRRPDYWGQGTQVTVSS
notes: as for B2

koff [1]: 0.00665 s⁻¹
kon [1]: 195000 M⁻¹ s⁻¹
Kd [2]: 51 nM
koff [2]: 0.00391 s⁻¹
kon [2]: 76700 M⁻¹ s⁻¹
EC50 [3]: 30.5 nM
EC50 [4]: 0.249 nM
Kd [5]: 20.3 nM
koff [5]: 0.00394 s⁻¹
kon [5]: 194000 M⁻¹ s⁻¹
Kd [6]: 41.4 nM
koff [6]: 0.00317 s⁻¹
kon [6]: 76700 M⁻¹ s⁻¹
B9: anti-CI-M6PR VHH11 (VHH)
VHH: QVQLQESGGGLVQAGDSLKLSCTASGPTFSEITGGWFRQVPGKEREFVASISSTGITTYYTDSVKGRFTVSRDNAKNTMYLQMNSLKPEDTGVYYCAARSTSRSIAITVGYDYWGQGTQVTVSS
notes: as for B2
